The target in this assay is T1, His-tagged wild-type MELK recombinant protein (human, UniProt Q14680-1 1-651).
T1 construct: pET21a usually adds a C-terminal His6 tag; also called WT-MELK; His-tagged WT-MELK; source: E. coli BL21 codon-plus (DE3) RIL, purified (Ni-NTA superflow, nondenaturing)
The assay is described as follows: pull-down; in vitro binding assay: 10 ug His-tagged MELK held by anti-6XHis antibody on protein G Sepharose; 5 ug Bcl-GL recombinant protein in 500 ul binding buffer (50 mM Tris, 75 mM NaCl, 10 mM MgCl2, 1 mM DTT, 2% BSA, 100 uM ATP), 30 minutes at 4°C; blot with anti-Bcl-GL. The settings on record: both partners purified.

T1 sequence (Q14680 whole entry): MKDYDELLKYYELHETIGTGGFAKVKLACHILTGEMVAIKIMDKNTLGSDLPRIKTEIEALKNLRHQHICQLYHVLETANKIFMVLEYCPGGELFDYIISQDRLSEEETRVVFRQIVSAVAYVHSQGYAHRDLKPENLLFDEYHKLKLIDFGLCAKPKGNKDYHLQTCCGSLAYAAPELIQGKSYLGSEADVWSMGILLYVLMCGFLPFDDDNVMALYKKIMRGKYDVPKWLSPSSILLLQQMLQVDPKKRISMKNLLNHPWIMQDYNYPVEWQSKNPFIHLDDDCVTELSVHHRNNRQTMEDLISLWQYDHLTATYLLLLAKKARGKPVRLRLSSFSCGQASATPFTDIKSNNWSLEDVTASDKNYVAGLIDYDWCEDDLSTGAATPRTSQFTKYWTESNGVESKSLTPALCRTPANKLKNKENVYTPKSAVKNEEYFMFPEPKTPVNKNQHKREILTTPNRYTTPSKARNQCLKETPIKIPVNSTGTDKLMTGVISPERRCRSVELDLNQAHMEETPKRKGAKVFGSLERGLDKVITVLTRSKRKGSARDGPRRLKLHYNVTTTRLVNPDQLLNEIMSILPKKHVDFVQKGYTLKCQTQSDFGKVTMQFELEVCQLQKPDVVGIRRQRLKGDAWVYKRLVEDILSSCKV

B1: Bcl-GL recombinant protein (GST removed) (natural protein, human, UniProt Q9BZR8-1 1-327, looked up)
chain: MCSTSGCDLEEIPLDDDDLNTIEFKILAYYTRHHVFKSTPALFSPKLLRTRSLSQRGLGNCSANESWTEVSWPCRNSQSSEKAINLGKKKSSWKAFFGVVEKEDSQSTPAKVSAQGQRTLEYQDSHSQQWSRCLSNVEQCLEHEAVDPKVISIANRVAEIVYSWPPPQATQAGGFKSKEIFVTEGLSFQLQGHVPVASSSKKDEEEQILAKIVELLKYSGDQLERKLKKDKALMGHFQDGLSYSVFKTITDQVLMGVDPRGESEVKAQGFKAALVIDVTAKLTAIDNHPMNRVLGFGTKYLKENFSPWIQQHGGWEKILGISHEEVD
notes: source: E. coli BL21 codon-plus RIL, purified (Glutathione Sepharose 4B), GST removed with PreScission protease
With B1, the binding result is reported as “binds”.

Source of the values: article PMC1851384, “Involvement of maternal embryonic leucine zipper kinase (MELK) in mammary carcinogenesis through interaction with Bcl-G, a pro-apoptotic member of the Bcl-2 family” (Breast Cancer Research, 2007).
